For assay [1], the target named is T1, Q7-AA.
T1 chain: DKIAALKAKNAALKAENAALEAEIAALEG
In words: two-hybrid library CCmax.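 Note: natural log of median RNA to DNA barcode read ratio; higher means stronger binding.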

In assay [2] the target is T2, Q8-AA.
T2 chain: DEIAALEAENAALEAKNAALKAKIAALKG
Put plainly: two-hybrid library CCmax.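 Note: natural log of median RNA to DNA barcode read ratio; higher means stronger binding.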 Particulars: mean of both orientations.

Assay [3] has as its target T3, O5-bS.
T3 chain: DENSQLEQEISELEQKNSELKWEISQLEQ
In words: two-hybrid library CCNG1.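 Note: natural log of median RNA to DNA barcode read ratio; higher means stronger binding.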

The target in assay [4] is T4, O8-bS.
T4 chain: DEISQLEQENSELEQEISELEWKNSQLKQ
In words: two-hybrid library CCNG1.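 Note: natural log of median RNA to DNA barcode read ratio; higher means stronger binding.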

Assay [5] deals with T5, O4-bS.
T5 chain: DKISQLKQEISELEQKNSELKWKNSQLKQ
In words: two-hybrid library CCNG1.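 Note: natural log of median RNA to DNA barcode read ratio; higher means stronger binding.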

Assay [6] concerns the target T6, O2-bS.
T6 chain: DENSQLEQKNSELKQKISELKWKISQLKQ
Put plainly: two-hybrid library CCNG1.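 Note: natural log of median RNA to DNA barcode read ratio; higher means stronger binding.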

The target of assay [7] is T7, O3-bS.
T7 chain: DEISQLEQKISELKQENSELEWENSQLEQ
Put plainly: two-hybrid library CCNG1.

Assay [8] addresses T8, O9-bS.
T8 chain: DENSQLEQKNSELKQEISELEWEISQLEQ
In words: two-hybrid library CCNG1.

The target of assay [9] is T9, O6-bS.
T9 chain: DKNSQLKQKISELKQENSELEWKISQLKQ
In words: two-hybrid library CCNG1.

The target in assay [10] is T10, O16-bS.
T10 chain: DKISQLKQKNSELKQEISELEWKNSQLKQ
In words: two-hybrid library CCNG1.

In assay [11] the target is T11, O7-bS.
T11 chain: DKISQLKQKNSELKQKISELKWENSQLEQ
Put plainly: two-hybrid library CCNG1.

Assay [12] deals with T12, O15-bS.
T12 chain: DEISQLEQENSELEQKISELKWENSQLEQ
Put plainly: two-hybrid library CCNG1.

The target in assay [13] is T13, 4H2608-AA.
T13 chain: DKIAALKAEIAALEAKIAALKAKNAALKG
In words: two-hybrid library CCmax.

The target in assay [14] is T14, 4H3595-AA.
T14 chain: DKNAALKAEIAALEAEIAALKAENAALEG
Put plainly: two-hybrid library CCmax. Particulars: mean of both orientations.

Assay [15] addresses T15, 4H3969-AA.
T15 chain: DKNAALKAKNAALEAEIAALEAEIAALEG
In words: two-hybrid library CCmax. Particulars: mean of both orientations.

Assay [16] has as its target T16, 4H63-AA.
T16 chain: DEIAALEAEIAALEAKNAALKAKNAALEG
In words: two-hybrid library CCmax. Particulars: mean of both orientations.

Assay [17] addresses T17, 4H2580-AA.
T17 chain: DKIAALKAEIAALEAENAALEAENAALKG
Put plainly: two-hybrid library CCmax. Particulars: mean of both orientations.

Assay [18] addresses T18, 4H483-AA.
T18 chain: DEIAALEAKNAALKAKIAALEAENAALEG
Put plainly: two-hybrid library CCmax. Particulars: mean of both orientations.

For assay [19], the target named is T19, 4H341-AA.
T19 chain: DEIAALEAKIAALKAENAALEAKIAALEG
Put plainly: two-hybrid library CCmax. Particulars: mean of both orientations.

The target of assay [20] is T20, 4H1867-AA.
T20 chain: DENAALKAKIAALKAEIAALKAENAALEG
In words: two-hybrid library CCmax.

Assay [21] addresses T21, 4H2621-AA.
T21 chain: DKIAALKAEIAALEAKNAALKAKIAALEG
In words: two-hybrid library CCmax. Particulars: mean of both orientations.

In assay [22] the target is T22, 4H1913-AA.
T22 chain: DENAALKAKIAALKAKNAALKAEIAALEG
In words: two-hybrid library CCmax. Particulars: mean of both orientations.

The target in assay [23] is T23, 4H3939-AA.
T23 chain: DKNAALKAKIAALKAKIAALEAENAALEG
Put plainly: two-hybrid library CCmax. Particulars: mean of both orientations.

The target of assay [24] is T24, 4H3629-AA.
T24 chain: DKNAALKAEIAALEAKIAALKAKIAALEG
In words: two-hybrid library CCmax. Particulars: mean of both orientations.

The target of assay [25] is T25, 4H380-AA.
T25 chain: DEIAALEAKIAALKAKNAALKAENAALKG
Put plainly: two-hybrid library CCmax. Particulars: mean of both orientations.

Assay [26] addresses T26, 4H2903-AA.
T26 chain: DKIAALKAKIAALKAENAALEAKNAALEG
In words: two-hybrid library CCmax. Particulars: mean of both orientations.

Assay [27] addresses T27, 4H3129-AA.
T27 chain: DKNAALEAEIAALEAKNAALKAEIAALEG
In words: two-hybrid library CCmax. Particulars: mean of both orientations.

Assay [28] concerns the target T28, 4H464-AA.
T28 chain: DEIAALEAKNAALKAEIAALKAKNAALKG
In words: two-hybrid library CCmax. Particulars: mean of both orientations.

For assay [29], the target named is T29, 4H3782-AA.
T29 chain: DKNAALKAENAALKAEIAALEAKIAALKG
In words: two-hybrid library CCmax. Particulars: mean of both orientations.

For assay [30], the target named is T30, 4H2699-AA.
T30 chain: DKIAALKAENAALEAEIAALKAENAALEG
In words: two-hybrid library CCmax. Particulars: mean of both orientations.

Assay [31] has as its target T31, 4H3049-AA.
T31 chain: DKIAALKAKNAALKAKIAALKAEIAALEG
Put plainly: two-hybrid library CCmax. Particulars: mean of both orientations.

Assay [32] concerns the target T32, 4H2728-AA.
T32 chain: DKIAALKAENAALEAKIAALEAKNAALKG
In words: two-hybrid library CCmax. Particulars: mean of both orientations.

For assay [33], the target named is T33, 4H2774-AA.
T33 chain: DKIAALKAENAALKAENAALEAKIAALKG
Put plainly: two-hybrid library CCmax. Particulars: mean of both orientations.

In assay [34] the target is T34, 4H1558-AA.
T34 chain: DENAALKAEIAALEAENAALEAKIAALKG
Put plainly: two-hybrid library CCmax.

Assay [35] concerns the target T35, 4H249-AA.
T35 chain: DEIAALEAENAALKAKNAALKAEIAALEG
In words: two-hybrid library CCmax. Particulars: mean of both orientations.

In assay [36] the target is T36, 4H2961-AA.
T36 chain: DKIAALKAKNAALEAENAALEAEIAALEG
Put plainly: two-hybrid library CCmax. Particulars: mean of both orientations.

Assay [37] has as its target T37, 4H3414-AA.
T37 chain: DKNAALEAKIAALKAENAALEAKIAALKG
Put plainly: two-hybrid library CCmax. Particulars: mean of both orientations.

Assay [38] has as its target T38, 4H446-AA.
T38 chain: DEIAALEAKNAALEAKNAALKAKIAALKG
In words: two-hybrid library CCmax. Particulars: mean of both orientations.

Assay [39] deals with T39, O6-bP.
T39 chain: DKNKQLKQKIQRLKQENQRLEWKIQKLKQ
In words: two-hybrid library CCNG1.

In assay [40] the target is T40, 4H48-bH.
T40 chain: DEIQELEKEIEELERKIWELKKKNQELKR
Put plainly: two-hybrid library CCNG1.

The target of assay [41] is T41, 4H491-bH.
T41 chain: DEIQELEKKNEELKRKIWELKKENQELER
Put plainly: two-hybrid library CCNG1.

The target in assay [42] is T42, 4H342-bH.
T42 chain: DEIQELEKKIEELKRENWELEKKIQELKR
Put plainly: two-hybrid library CCNG1.

In assay [43] the target is T43, 4H496-bH.
T43 chain: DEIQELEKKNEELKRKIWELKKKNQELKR
Put plainly: two-hybrid library CCNG1.

Assay [44] concerns the target T44, 4H3632-bH.
T44 chain: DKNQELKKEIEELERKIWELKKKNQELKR
In words: two-hybrid library CCNG1.

Assay [45] addresses T45, 4H3172-bN.
T45 chain: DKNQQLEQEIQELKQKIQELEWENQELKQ
Put plainly: two-hybrid library CCNG1.

Assay [46] addresses T46, 4H570-bN.
T46 chain: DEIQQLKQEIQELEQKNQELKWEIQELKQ
In words: two-hybrid library CCNG1.

For assay [47], the target named is T47, 4H850-bN.
T47 chain: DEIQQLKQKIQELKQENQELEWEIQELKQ
Put plainly: two-hybrid library CCNG1.

Assay [48] deals with T48, 4H3817-bN.
T48 chain: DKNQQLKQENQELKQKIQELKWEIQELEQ
Put plainly: two-hybrid library CCNG1.

Assay [49] deals with T49, 4H619-bN.
T49 chain: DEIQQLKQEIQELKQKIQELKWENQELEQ
In words: two-hybrid library CCNG1.

Assay [50] concerns the target T50, 4H3129-bN.
T50 chain: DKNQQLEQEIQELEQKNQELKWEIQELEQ
In words: two-hybrid library CCNG1.

Assay [51] concerns the target T51, 4H906-bN.
T51 chain: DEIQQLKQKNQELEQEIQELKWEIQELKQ
In words: two-hybrid library CCNG1.

In assay [52] the target is T52, 4H3631-bN.
T52 chain: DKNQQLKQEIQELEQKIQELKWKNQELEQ
Put plainly: two-hybrid library CCNG1.

For assay [53], the target named is T53, 4H3974-bN.
T53 chain: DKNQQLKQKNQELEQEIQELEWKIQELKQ
Put plainly: two-hybrid library CCNG1.

Assay [54] addresses T54, 4H584-bN.
T54 chain: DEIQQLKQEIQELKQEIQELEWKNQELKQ
In words: two-hybrid library CCNG1.

Assay [55] concerns the target T55, 4H3414-bN.
T55 chain: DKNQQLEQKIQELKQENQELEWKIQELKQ
In words: two-hybrid library CCNG1.

Assay [56] has as its target T56, 4H3638-bN.
T56 chain: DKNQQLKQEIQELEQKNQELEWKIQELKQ
Put plainly: two-hybrid library CCNG1.

Assay [57] has as its target T57, 4H1985-bN.
T57 chain: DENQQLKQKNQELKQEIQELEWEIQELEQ
Put plainly: two-hybrid library CCNG1.

Assay [58] has as its target T58, 4H1804-bN.
T58 chain: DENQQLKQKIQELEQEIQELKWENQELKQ
In words: two-hybrid library CCNG1.

Where two headings read alike, the source gives them in different places.

As to DEIAALEAEIAALEAENAALEAENAALEG [Q3-AA], the interaction score in [1] (mean of both orientations) was -1.36; in [2], -1.09.

On to DEISQLEQENSELEQKISELKWENSQLEQ [O15-bS], for which the interaction score in assay [3] was -1.13; in assay [4] it was -1.05; in assay [5], -0.754; in assay [6], -0.919; in assay [7], -3.1; in [8], -0.877. Besides, the interaction score in assay [9] was -0.0139; in [10], 1.93; in [11] it was -0.978; in assay [12], -0.724.

In the case of DENAALKAEIAALEAENAALEAKIAALKG [4H1558-AA], the interaction score is -1.1 in assay [13]; -1.53 in [14]; -1.28 in assay [15]; -0.799 in assay [16]; -1.57 in assay [17]; 0.272 in assay [18]. Besides, the interaction score in assay [19] is 1.27; in assay [20], -1.23; in assay [21], 1.29; in assay [22], 1.75; in [23] it was -0.411; in assay [24], 0.444. For the same molecule, the interaction score in assay [25] is 1.48; in assay [26], -0.294; in [27], 2.15; in [28], 0.907; in assay [29], -0.467; in assay [30] it was -0.582. For the same molecule, the interaction score in assay [31] is 1.32; in assay [32] it was -0.226; in [33] it was -0.715; in assay [34], 0.452; in [35], 1.51; in [36], -1.19. Further, the interaction score in assay [37] is 1.1; in assay [38] it was -0.543.

Take DKIAALKAKNAALKAENAALEAEIAALEG [Q7-AA]: the interaction score is -1.59 in assay [1] and 2.38 in assay [2].

With DEIQELEKEIEELERKIWELKKKNQELKR [4H48-bH], the results for the interaction score in assay [39], in [40] and in assay [41] were -0.138, 1.21 and 2.29, respectively.

On to DEIQELEKKIEELKRENWELEKKIQELKR [4H342-bH], for which the interaction score in assay [42] is 1.38; in assay [43], 0.0247; in assay [40] it was -0.0388; in assay [41], 1.47; in assay [44] it was 1.55.

As to DENQQLKQKIQELEQEIQELKWENQELKQ [4H1804-bN], the interaction score was -0.368 in assay [45]; -0.363 in [46]; 0.194 in assay [47]; -0.425 in assay [48]; -1.34 in assay [49]; 0.0855 in [50]. The interaction score is -0.241 in [51]; 0.112 in [52]; -1.87 in assay [53]; 0.249 in assay [54]; -0.563 in assay [55]; -0.805 in assay [56]. The interaction score is 0.201 in assay [57] and 1.58 in assay [58].

Values taken from publication PMC10397247.
